# In the DeepSol protein solubility set:
# Experiment: soluble on expression in E. coli; label from the status in PepcDB or PDB records
row,Sequence,soluble on expression in E. coli
1,MPSLSEFLRKRRARQRRLQAVPSNNKKKSNNNNIMSSTSSGKSRRAASLSSINNFEHLASVEKAGWLNKWTNYLKGYRQRWFVLDSNATLSYYRNPSEVGHTCRGSINLQEARVHTDKTTSCIVISGQSQTFHVKPQNEMDRQQWTNSLEYMRHKAITRAESEEDEDAQMAKTDSNRSDALILANRQMSGKLCDLRTAANMMNKQGDELMRALNGTVETDKNSLAERADLLKMTTSAVLQAAEEFVELSEQSAKRLNKIVAVEQKEKALLQEQLEALAKQHSSLERAASKCARGAAPVSVYSDQEDDEFHDAEEDLAMPCSNSNGPPATAGVHLTPTKRHIGAGDPSSSTCSDSGAVVVVGAHKGGRQRRTTVPERPNLPINLWSIMKNCIGKELSKIPMPVNFSEPISVLQRVTEDLEYANLLETGAKLSTLEQMCYVAAYAASNYSTTCHRTNKPFNPLLGETFEFDRMDDLGWRSVTEQVSHHPPAAAHHAEGNGWTMYQDFTMTSRFRGKYLSVIPIGFTHVVFPATKSHFSYRKITTTVHNIIVGKLWIDNHGDMEITNHETNEKCLLKFVPYSYFSREQPRKVYGIVRDAEGIPKYVVQGTWDKSIDMLKVSSWNGNHEKPKLEVDETSLKRIWTANPLPKNAEKMHNFTKLAIELNEPEEGVAPTDSRLRPDQRLMENGEWDEANRKKLEIEEKQRVVRRRREAEKELAMKKGDKYEEYEPTWFVRVQDESNGALIHQFKGGYWEAKEQQNWEKCPDIF,not soluble
2,GPGSMGMSVTMINAIPLLRSMHANCVCPVCFEVFKKPVCFPCGHILCRACATRCIAARPRCPLCNQAVPNMRHCAPLPQLSLLCVLTREVGLRASGLQLRSSVQNAATPLSHRNHDSSMKRHRGATADDAVEETQGEHQAPRPRRSSLSPPPEQRPFLSLREPRASHRVANAVAATEGSTANHAQHTSLPELLRAAAGETQRLQSESPPPPLLMVGEGDDVLLGEAPHRSIIAQVTTSLPSAIAHRVGDSGALGRGQDQPPTPTPPPALSPSPAPFSTPLQLMCNHITDHADQLDSTPLLSPLPFTAFAVVEAASVTAAASVTHRSAQASSRVLATEHASNAKKASSWSLWRRGRGVIHCTLTPPAARLLARQSVVADGAGRGKTEAASKTASSSSAASADTAASLWHRFGCCALCGLDVVQRAAVRQRLQHLLRSPTAHCDPAELAMQTEESLSLLLGPLWGVCCEVQEHSTNIAQSQVSTCEGEYTTTELDAVQGSYCCPCRGEVTAHHVTGVAHHNCLAWAGLLDFFTNTSLEDLPAAAAAGVYFVPSMTASLHMTVPLQDPLGVLAARTSGRVARWQLLAATLCHMHQRDADEESELGKRVQTSGESGAEGPLMTPRCALCEDGAPLLASNSPSFPFGAGLRVCEGTERGESSCGQQYHYPCALLAGASACIIFGLEDECNVLDASASTPVRDRSAGGKRRGVERPVEVWCGVCHERHEVCRRRV,not soluble
3,AQRRAVAAAGGLARSCPAGQQALLAEGFARRLLRDVAATLHEGEYTSPLCEPLAYADPLAGLAAALAELMAWPGLLAVLQPVQAQPDAVAAAAGAGAPAAAGAGVGAGSGARQRLAQETADRARAEVLVLLQELVTWLDPCCDDSRGVAPQDAAAVSLAAFRSLVEHDPGAAAALDADTNIRWYLCNLTGDDAPPAAPPAECVAPQSDMLLDLARRLLAALPPLAAAAAPG,not soluble
4,MSLGKYFGTDGVRGVANSELTPELAFRLGRMGGYVLTRHVGEHPRVLVARDTRISGEMLESALIAGLVSVGIEVMRLGVISTPGVAYLTKAQGASASVMISASHNPVDDNGIKFFGSDGFKLSDDQEEEIEQLLDTAEDTLPRPSGEGLGTVSDYFEGKQKYIQYLKQTIENDFNGYHIALDCANGATSGLATHLFADLDADISSMGASPNGLNINDGVGSTHPEALAAFVLDKKADVGLAFDGDGDRVIAIDEIGQIVDGDKIMFICAKYLREQGLLNNNTIVSTVMSNLGFYKGLKELEIEDVQTAVGDRYVVEAMREGNYNLGGEQSGHIIFLDHNTTGDGLLSGIQLINVMKATGKKLSELAAEMKTFPQKLENIRVSDKNHVTDNPKVSKVIGEVEAEMAGNGRVLVRPSGTEPLVRVMVEAATKEETDEYCERISAVVRSEMALNDEGHHHHHH,soluble
5,MTSSAMDNNEPKVLEMVYDATILPECSGMDPSIIDCINRHINMRIQRSYSSNIIAILDRFLMMNKDELNNTQCHIIKEFMTYEQMAIDYYGGYVNAILYQIRKRPNQHHTIDLFKRIKRTRYDTFKVNPVEFVKKVIGFVSILNKYKPIYSYVLYENVLYDELKCFIDYVETKYFQN,not soluble
6,SYLGSEFDNVELKDLANVLSFGEAKLGDNGQKFNFLFHTASSNVWVPSIKCTSESCESKNHYDSSKSKTYEKDDTPVKLTSKAGTISGIFSKDLVTIGKLSVPYKFIEMTEIVGFEPFYSESDVDGVFGLGWKDLSIGSIDPYIVELKTQNKIEQAVYSIYLPPENKNKGYLTIGGIEERFFDGPLNYEKLNHDLMWQVDLDVHFGNVSSKKANVILDSATSVITVPTEFFNQFVESASVFKVPFLSLYVTTCGNTKLPTLEYRSPNKVYTLEPKQYLEPLENIFSALCMLNIVPIDLEKNTFVLGDPFMRKYFTVYDYDNHTVGFALAKNL,soluble
7,MPLSAQQLAAQKNLSYVLAEKLAQRILKGDYAPGTILPGEIELGEQYGVSRTAVREAVKTLTAKGMVLPRPRIGTRVMPQGNWNFLDQELLTWWMTEENFHQVVEHFLVMRISLEPQACLLAATLGTPEQKARLNALMEEMVALKKHFKRERWIEVDMAWHEHIYEMSANPFLISFATLFHSVYHTYFTSITYNEVVKLDLHQAIVDAIADGDGERAFQACQALLIAPNERPDN,not soluble
8,NDSPFYVNPNMSSAEWVRNNPNDPRTPVIRDRIASVPQGTWFAHHNPGQITGQVDALMSAAQAAGKIPILVVSNAPGRDCGNHSSGGAPSHSAYRSWIDEFAAGLKNRPAYIIVEPDLISLMSSCMQHVQQEVLETMAYAGKALKAGSSQARIYFDAGHSAWHSPAQMASWLQQADISNSAHGIATNTSNYRWTADEVAYAKAVLSAIGNPSLRAVIDTSRNGNGPAGNEWCDPSGRAIGTPSTTNTGDPMIDAFLWIKLPGEADGCIAGAGQFVPQAAYEMAIAA,soluble
9,MKFEILQQLNAERAARRPAIVVTDTATGAQRLVKAADIAADPLAAELGKQLRMGKSASIEIDGRKLFLNVYAPTAKLVIVGAVHISQALAPLARSLGYDVTVVDPRTAFASPERFPDVPLIAEWPDVALPPLNIDHYTAFVALTHDPKIDDPALLHAFARDCFYIGALGSKKTHAKRLERLKGQGASDADLGRIHAPIGLAIGAVSPSEIAVSIMAEITAALRLPASSKAAAA,not soluble
10,MGSDKIHHHHHHMDLSKIASTINMRYYSQLGGFQVGGAVSGLDTQSIINAILEAESQPLQNLTEKYEKYELMQEAYTEVKTKLREFRDLVYSFKLQSTVVQKTAVSSSSLLSAEASSVAVTGVYHVKIVQTATYTTLAGASEVVPPPDSTKTFGELDYMYTPQEGTVRLYNNETGNYVEVQVLSTDTIDDIVSKLNSALSSAGITGSVSYDTSTGKISITSDKNFSLVDITGNFTKVFHLDEASLNYSGGNYSFTSTASVSGLSTAKTLQQIATYTSKTIISGKVKINGVEIDVDQNDTLSSLIEKINDSEAGVTASYDYHANRVVIISKTSGPEAITLEDTYGTGLFSLLGIENHSLYVGQKAHLQISMDGTNWADVYSDTNDVEYNGVTFHISGMTSETITVDVRVDTDAIVEKIKEFVDKWNETMDYLNEKLTEESITDKDEEEMTEEEKMKGVLKGDDLLEEIFSRLRGFITYKAEGDINYLWELGISTGDIGTGYENMMKGHLEVDEEKLKQIVEEDPNKVWEFFGGENGFATQLDDYLWELVKFNGRIDQVAGISGRIEREQRFLATQIASWIERLSKREQELWRKFSVMEEVISQLQSQGSWISQALQGSSNK,not soluble
11,NFVAPQDRIATFDNDGTLWSEKPMYFQILFMLDQIKEQAASHPDWKTTKPYSLVLSGQIDKLSLEDVLTMVQKTHSGMSSDEFTSIVQAWISTAKHPATGRPYTDMVYQPMLELLDYLDSNGFKNFIVSGGGNAFMRAWATDVYNIPSERIIGTRLSTEFVNVDGSYQVKRVPGIEVNNDKAEKPQQIYQHIGKRPIASFGNSDGDLQMLQWTTSGT,not soluble
12,ATCYCRTGRCATRESLSGVCEISGRLYRLCCR,soluble
13,MAHHHHHHMGYTRERTNRHFFVARANAFFSRLPIARVQRSLAMEAVREGRMRPWKYTKEQILGAPVTCNFEYNPRPVRLIGTVMDAHTEETSIKGGLKVYARNEETNMMLWIPPGNPKLRHEVTSTKGSFQHYLDERDKWDEAWITGRARMK,not soluble
